Results reported in patent US20160272953A1, “Activated Sugars” (ZuChem, Inc., priority 2010, published 2016).

B1: T. thermophilus: Thermus thermophilus wild-type sugar-1-kinase (SEQ ID NO:9) (protein, listed as Thermus thermophilus)
chain: MGFQEVYGVLPQASAQAPGRVNLLGEHTDYQEGYVLPTPIPYFTRVEAAPLEGAVEAFSENLGELRARPLSSPPQGDFLDYLLGVVRALREAGHEVAGARFYVRSDLPMGAGLSSSAALEVAALRALRTLYRLPLSDLEVARLAQKAEVEYVGVRCGIMDQMAASLGQPGQALFLDTRTLAYENLPLPPGVRVAVLDLGLGRRLAEAGYNRRRQEAEEAAKRLGVRSLRDVADLCLVESLPSPLDRRARHVVSENLRVLRGVEALRRGDARAFGELMTQSHRSLAQDYEVNLPELDALVEEALRAGAYGAKLTGAGFGGAVVALVAESRFPAFREALARRFPDLKVL
B2: S. thermophilus: Streptococcus thermophilus wild-type sugar-1-kinase (SEQ ID NO:8) (protein, listed as Streptococcus thermophilus)
chain: MNTSQLREKFKEVFGVEADHTFFSPGRINLIGEHTDYNGGNVLPVAITLGTYGAARKRDDKVLRFFSANFEEKGIIEVPLENLRFEKEHNWTNYPKGVLHFLQEAGHTIDSGMDIYIYGNIPNGSGLSSSSSLELLIGVIVEKLYDIKLERLDLVKIGKQTENDFIGVNSGIMDQFAIGMGADQCAIYLDTNTLKYDLVPLDLKDNVVVIMNTNKRRELADSKYNERRAECETAVSELQEKLDIQTLGELDFLTFDAYSYLIKDENRIKRARHVVLENQRTLQARKALEAGDLEGFGRLMNASHVSLEYDYEVTGLELDTLAHTAWEQEGVLGARMTGAGFGGCAIALVNKDKVEDFKKAVGQRYEEVVGYAPSFYIAEVTGGSRVLD
B3: P. furiousus: Pyrococcus furiosus wild-type sugar-1-kinase (SEQ ID NO:10) (protein, listed as Pyrococcus furiosus)
chain: MSKITVKSPGRVNLIGEHTDYTYGYVMPMAIDLYTIITAEKYDKVQLYSEHFNEEKTFTLDNLTKEGSWIDYVKGVLWVLIQEGYKIGGLKGKITGDLPLGAGLSSSASFEVGILEVLNQLYNLNIDPLKKALLAKKAENEFVGVPCGILDQFAVVFGKKDNVIFLDTQTLQYEYIPFPKDVSVLVFYTGVKRELASSEYAERKRIAEESLRILGKESSKEVTEKDLGKLPPLHRKFFSYIVRENARVLEVRDALKEGDIEKVGKILTTAHWDLAENYRVSCEELDFFVKKAMELGAYGARLTGAGFGGSAIALVDKDKAKTIGDAILREYLAKFSWKAKYFVVKPSDGVGV

test: Sugar kinase activity of cell lysates with D-galactose at 37, 45, 55° C. (DNS assay); format: biochemical; conditions: 8 mM D-galactose; 37, 45 and 55° C.
Description: The formation of a phosphorylated sugar by kinase activity can be monitored by a number of methods. One method for detecting sugar-1-kinase activity is the 3,5-dinitrosalicylic acid (DNS) assay. This assay exploits the fact that reducing sugars can reduce compounds such as 3,5-dinitrosalicylic acid, which undergo a color change upon reduction. This assay can be used for sugar-1-kinases since the product of their reaction (sugar-1-phosphate) no longer has the ability to reduce DNS. Therefore, when the reaction is complete no color change occurs when incubated with DNS and the result is a yellow color. However, when reducing sugar remains, the result is reduction of DNS and red/brown color. This assay is furthermore concentration dependent providing a linear color change from 0.1 to 10 mM reducing sugar.
The sugar kinase proteins were expressed recombinantly in E. coli induced with 0.5mM IPTG and partially purified cell lysates were then assayed (100 μL) with 400 μmM ATP, 3.5 mM Mg^2+, and 8 mM D-galactose at three different temperatures, 37, 45, and 55° C. […] A negative control was treated similarly and consisted of the host strain with empty plasmid.

Molecule	activity in partially purified cell extract
B1	more active at temperatures higher than 37 °C
B2	most activity
B3	more active at temperatures higher than 37 °C
